# IntAct's records for PubMed 11967127
# B1: Disabled homolog 2 (Mus musculus), P98078 (parent)
# chain: MSNEVETSTTNGQPDQQAAPKAPSKKEKKKGSEKTDEYLLARFKGDGVKYKAKLIGIDDVPDARGDKMSQDSMMKLKGMAAAGRSQGQHKQRIWVNISLSGIKIIDEKTGVIEHEHPVNKISFIARDVTDNRAFGYVCGGEGQHQFFAIKTGQQAEPLVVDLKDLFQVIYNVKKKEEDKKKVEEANKAEENGSEALMTLDDQANKLKLGVDQMDLFGDMSTPPDLNSPTESKDILLVDLNSEIDTNQNSLRENPFLTNGVTSCSLPRPKPQASFLPENAFSANLNFFPTPNPDPFRDDPFAQPDQSAPSSFDSLTSPDQKKASLSSSSTPQSKGPLNGDTDYFGQQFDQLSNRTGKPEAQGGPWPYPSSQTQQAVRTQNGVSEREQNGFHIKSSPNPFVGSPPKGLSVPNGVKQDLESSVQSSAHDSIAIIPPPQSTKPGRGRRTAKSSANDLLASDIFASEPPGQMSPTGQPAVPQSNFLDLFKGNAPAPVGPLVGLGTVPVTPPQAGPWTPVVYSPSTTVVPGAIISGQPPSFRQPLVFGTTPAVQVWNQSPSFATPASPPPPTVWCPTTSVAPNAWSSTSPLGNPFQSNNIFPPPTMSTQSSPQPMMSSVLATPPQPPPRNGPLKDIPSDAFTGLDPLGDKEVKEVKEMFKDFQLRQPPLVPSRKGETPPSGTSSAFSSYFNNKVGIPQEHVDHDDFDANQLLNKINEPPKPAPRQGVLLGTKSADNSLENPFSKGFSSSNPSVVSQPASSDPHRSPFGNPFA
# B2: Disabled homolog 1 (Mus musculus), P97318 (parent)
# chain: MSTETELQVAVKTSAKKDSRKKGQDRSEATLIKRFKGEGVRYKAKLIGIDEVSAARGDKLCQDSMMKLKGVVAGARSKGEHKQKIFLTISFGGIKIFDEKTGALQHHHAVHEISYIAKDITDHRAFGYVCGKEGNHRFVAIKTAQAAEPVILDLRDLFQLIYELKQREELEKKAQKDKQCEQAVYQTILEEDVEDPVYQYIVFEAGHEPIRDPETEENIYQVPTSQKKEGVYDVPKSQPNSQPLEDFESRFAAATPNRNLSMDFDELLEATKVSAVTQLELFGDMSTPPDITSPPTPATPGDAFLPSSSQTLPGSADVFGSMSFGTAAVPSGYVAMGAVLPSFWGQQPLVQQQIAMGAQPPVAQVIPGAQPIAWGQPGLFPATQQAWPTVAGQFPPAAFMPTQTVMPLAAAMFQGPLTPLATVPGTNDSARSSPQSDKPRQKMGKESFKDFQMVQPPPVPSRKPDQPSLTCTSEAFSSYFNKVGVAQDTDDCDDFDISQLNLTPVTSTTPSTNSPPTPAPRQSSPSKSSASHVSDPTADDIFEEGFESPSKSEEQEAPDGSQASSTSDPFGEPSGEPSGDNISPQDGS
# Variants of: B1
# Settings: with myo6_chick MYO6, Q9I8D1
row,effect of a mutation on the interaction,Variant
1,decreasing interaction,D699A;F700A;D701A
2,disrupting interaction,S682A;Y683A;F684A

# Variants of: B2
# Settings: with myo6_chick MYO6, Q9I8D1
# Target sequence in this assay (Q9I8D1 whole entry): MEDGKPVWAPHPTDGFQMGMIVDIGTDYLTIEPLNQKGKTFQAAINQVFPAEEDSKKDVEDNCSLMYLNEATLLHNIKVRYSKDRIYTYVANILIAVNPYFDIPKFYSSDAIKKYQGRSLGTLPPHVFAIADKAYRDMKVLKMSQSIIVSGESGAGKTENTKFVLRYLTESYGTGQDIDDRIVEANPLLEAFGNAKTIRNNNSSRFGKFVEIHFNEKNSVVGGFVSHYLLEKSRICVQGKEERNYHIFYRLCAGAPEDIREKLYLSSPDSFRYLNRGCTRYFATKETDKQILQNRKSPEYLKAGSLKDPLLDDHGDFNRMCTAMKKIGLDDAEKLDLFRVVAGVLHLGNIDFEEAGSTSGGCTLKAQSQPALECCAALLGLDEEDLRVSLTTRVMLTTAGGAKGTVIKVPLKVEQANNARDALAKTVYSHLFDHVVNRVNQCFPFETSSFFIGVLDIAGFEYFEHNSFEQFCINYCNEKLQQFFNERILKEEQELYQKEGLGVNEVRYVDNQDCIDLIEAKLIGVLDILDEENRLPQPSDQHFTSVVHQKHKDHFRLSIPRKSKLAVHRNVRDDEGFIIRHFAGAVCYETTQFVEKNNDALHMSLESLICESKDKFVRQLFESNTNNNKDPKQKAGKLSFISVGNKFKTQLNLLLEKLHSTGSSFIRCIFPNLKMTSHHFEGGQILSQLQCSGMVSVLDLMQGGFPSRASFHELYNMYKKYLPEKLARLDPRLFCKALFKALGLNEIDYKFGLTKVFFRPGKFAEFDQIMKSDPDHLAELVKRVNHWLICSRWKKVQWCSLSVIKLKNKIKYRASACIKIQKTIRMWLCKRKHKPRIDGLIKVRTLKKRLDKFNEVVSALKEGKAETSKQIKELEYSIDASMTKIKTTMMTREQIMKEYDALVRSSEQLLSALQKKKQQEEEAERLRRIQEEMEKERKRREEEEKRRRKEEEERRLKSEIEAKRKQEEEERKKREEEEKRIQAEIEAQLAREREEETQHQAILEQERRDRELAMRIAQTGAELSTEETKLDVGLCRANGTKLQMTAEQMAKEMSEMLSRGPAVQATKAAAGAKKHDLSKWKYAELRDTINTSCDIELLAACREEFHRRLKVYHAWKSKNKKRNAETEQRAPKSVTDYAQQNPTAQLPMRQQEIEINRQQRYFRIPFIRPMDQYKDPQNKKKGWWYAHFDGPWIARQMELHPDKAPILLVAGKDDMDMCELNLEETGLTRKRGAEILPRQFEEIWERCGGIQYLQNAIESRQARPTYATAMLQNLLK
row,effect of a mutation on the interaction,Variant
1,decreasing interaction,MSTETELQVAVKTSAKKDSRKKGQDRSEATLIKRFKGEGVRYKAKLIGIDEVSAARGDKLCQDSMMKLKGVVAGARSKGEHKQKIFLTISFGGIKIFDEKTGALQHHHAVHEISYIAKDITDHRAFGYVCGKEGNHRFVAIKTAQAAEPVILDLRDLFQLIYELKQREELEKKAQKDKQCEQAVYQTILEEDVEDPVYQYIVFEAGHEPIRDPETEENIYQVPTSQKKEGVYDVPKSQPNSQPLEDFESRFAAATPNRNLSMDFDELLEATKVSAVTQLELFGDMSTPPDITSPPTPATPGDAFLPSSSQTLPGSADVFGSMSFGTAAVPSGYVAMGAVLPSFWGQQPLVQQQIAMGAQPPVAQVIPGAQPIAWGQPGLFPATQQAWPTVAGQFPPAAFMPTQTVMPLAAAMFQGPLTPLATVPGTNDSARSSPQSDKPRQKMGKESFKDFQMVQPPPVPSRKPDQPSLTCTSEAFSAAANKVGVAQDTDDCDDFDISQLNLTPVTSTTPSTNSPPTPAPRQSSPSKSSASHVSDPTADDIFEEGFESPSKSEEQEAPDGSQASSTSDPFGEPSGEPSGDNISPQDGS [S478A;Y479A;F480A]
